One molecule from article PMC8031663, “Caveolin‐1‐driven membrane remodelling regulates hnRNPK‐mediated exosomal microRNA sorting in cancer” can be followed below.

The series concerns the target hnRNPK (6xHis-GFP fusion) (Homo sapiens, UniProt P61978 1-463). The series can be described thus: MST; Kd plotted in Fig 4B, value not in text; MST: 50 mM HEPES, 0.3 M KCl, pH 7.4, 40 nM RNA, protein dilution from 150 uM, temperature not stated; pull-down: 10 mM Tris-Cl pH 7.5, 20 mM KCl, 1.5 mM MgCl2. Conditions: protein: recombinant; tags: N-terminal 6xHis-GFP, TEV site; label: 5' 6-FAM; single strand.

B1: motif_mimic (miR-148a-3p) (ssRNA)
RNA: UCAGUGCACUACAGAACUUUGU
On to B1, for which the binding result is listed as “binds”.
